Key:
Format in all cases: cell-based, Escherichia coli
[1] = tested on: β-lactamase translocation in E. coli JM109(DE3); test: Immunoblot of transported and processed β-lactamase; settings: per cell basis, four hours, ampicillin 50 μg to 3 mg/ml
Procedure: Changes to β-lactamase transport were monitored by two different approaches: 1) the ability to form colonies on solid LB-agar plates containing increasing concentrations of ampicillin (50 μg/ml to 3.0 mg/ml); and 2) the level of transported and processed β-lactamase detected by immunoblotting total protein samples of cells grown in LB-broth containing increasing ampicillin concentrations.
The same cells were also used to determine the level of transported β-lactamase grown in media containing increasing concentrations of ampicillin. Cultures were diluted 5× into LB broth with increasing amounts of ampicillin (50 μg/ml to 3.0 mg/ml) and allowed to grow up to 4 hours. The level of transported β-lactamase was monitored by immunoblotting analysis of samples taken at time intervals of 0 hr, 0.5 hr, 1.0 hr, 1.5 hr, 2.0 hr, 3 hr and 4 hr. Immunoblot analysis was performed on total cellular protein samples with anti-p-lactamase antibodies as outlined above.

[2] = tested on: β-lactamase transport in E. coli MM52 (secAts); test: Ampicillin resistance, colony formation in temperature-sensitive secA mutant strain MM52; settings: 30° C. permissive temperature
Source text: The effects of Bce44B on β-lactamase transport were further tested in a temperature-sensitive secA (secAts) mutant bacterial strain (MM52, a gift from Dr. Jon Beckwith, Harvard Medical School, Boston Mass.) to provide further evidence that the expressed Bce44B component affected protein translocation in bacteria and that the protein transport enhancement was not due solely to the upregulation of the existing bacterial transport machinery such as SecA. See Example 17. The defective protein translocation phenotype in MM52 appears primarily when cells are subjected to temperatures above 30° C. Protein translocation slows down and comes to a halt upon shifting to temperatures above 30° C. […] Effects on protein transport can then be monitored in this strain by tracking the β-lactamase profiles at permissive and non-permissive temperatures.
The same Bce44B gene construct and control Oee1-Dhfr plasmid were introduced into MM52 and its wild type counterpart strain MC4100 (containing the wild-type SecA) via electroporation. The role of Bce44B in protein translocation was assessed as before using three different criteria: 1) the level of antibiotic resistance conferred; 2) the profile of transported versus precursor β-lactamase at permissive and non-permissive temperatures; and 3) the level of sensitivity of protein transport to sodium azide. […]

[3] = tested on: β-lactamase transport in E. coli MM52 (secAts); test: Sodium azide sensitivity of β-lactamase transport in MM52; settings: MM52 strain, 30° C., two hours, sodium azide 0 to 1 mM
Procedure: Overnight cultures of MM52-Bce44B, MM52-Oee1-Dhfr, MC4100-Bce44B, and MC4100-Oee1-Dhfr cells were used as inocula for parallel experiments. These freshly inoculated cultures were grown at 30° C. for two hours in media containing increasing concentrations of sodium azide (from 0 to 1 MM). Cells were then harvested, and normalized according to cell number before analysis. […] Azide sensitivity characteristics were firther assessed by growing both wild-type and mutant bacterial lines in the media containing 0.5 mM sodium azide for 0, 1 and 2 hr.
Sensitivity of the bacterial strains to sodium azide was determined in the same manner as outlined in Oliver el al. (1990) Proc. Natl. Acad. Sci. USA 87:8227. Changes to β-lactamase transport activity in response to sodium azide was used as a monitor of differences in the protein translocation activity of Bce44B- versus Oee1-Ohfr-expressing cells. […]
The pBCE44B and pOEEIDHFR plasmids were introduced into E. coli strain MM52 (Oliver and Beckwith, (1981) Cell 25:765) by electroporation using the BioRad Gene Pulser and the supplied protocols for E. coli strains. […] The plasmid-harboring MM52 strains were grown in LB-ampicillin broth and analyzed in the same manner as the JM109(DE3) strains described above.

B1: Bce44B: plastid transport protein, Brassica napus 44 kDa chloroplast envelope protein, member of Com44/Cim44, encoded by SEQ ID NO:1 (protein)
chain: MQTAMKTMMNQMNTQNSQFNNPGFPTGAGAGAGSPFPFPFPPQTSPTTSPFQPQSQSSGATVDLTATKVDRPPVSKPQPTPIPPTKSIEVYKPSVVVEENKAMKEEKNYAFEDVSPEETTKESPFSNYEEVSETSAPKETRLFDDVLQNGAAPANGATASDVFQSLGAGKGWAGGSVEVLEKMIEYPTFQKMLYPHLPEEMRNPESFKWVRKNPQYRQQLQDMLNNMSESGEWDKRMTETLKNFDPNSPEVKQGFDQLGLTPEEVISKIMENPDVSMAFQNPRVEAALMDCSENPMNIMKYQNDKEVMDVFNKISQLFPGLTG
Question: With B1 as the molecule, how does the “level of processed β-lactamase compared with Oee1-Dhfr-expressing cells” value [1] read?
Answer: higher

Question: And the “ampicillin concentration up to which expressing cells form colonies” value [2]?
Answer: up to 3 mg/ml

Question: And the “sodium azide concentration at which precursor form of β-lactamase appears” value [3]?
Answer: 0.25 to 0.375 mM

From patent US6353153B1, “Enhanced transport with a plastid membrane transport protein” (priority 1996, dated 2002)
